{
  "source": "paper PMC6459735",
  "about": "(Journal of biomolecular structure & dynamics, 2019)",
  "proteins": {"B1": {"name": "human Caprin-2 fragment (residues 199-329), dimerization domain (domain or fragment)", "chain": "GPSSPSQRREHMLKLEAEKKKLRTILQVQYVLQNLTQEHVQKDFKGGLNGAVYLPSKELDYLIKFSKLTCPERNESLSVEDQMEQSSLYFWDLLEGSEKAVVGTTYKHLKDLLSKLLNSGYFESIPVPKNAKEKEVP", "modifications": "Se-Met labelled (L-seleno-methionine in place of methionine) in the crystal used for the structure"}},
  "biological_target": "the molecule itself",
  "assay": "crystal structure",
  "data": [
    {"protein": "B1", "values": [
      {"measurement": "stoichiometry N", "result": 2}
    ]}
  ]
}
